The record followed here is patent publication US20260062487A1 (GRITSTONE BIO, published 2026).

Assay [1] has as its target T1, HLA-PEPTIDE target A*01:01_… (G2) on cells (human).
T1 construct: whole, on cells; also recovered from cell lysates in the IP-MS experiment; also called G2 pHLA; G2 target
Briefly: flow cytometry, anti-IgG PE, peptide-pulsed K562 cells. A general note: A flow cytometer gives signals particle by particle.
Description: (§1) HLA-transduced K562 cells were pulsed the night before with 50 μM of peptide (Genscript) in IDMEM containing 1% FBS in 6 well plates and incubated under standard tissue culture conditions. Cells were harvested, washed in PBS, and stained with eBioscience Fixable Viability Dye eFluor 450 for 15 minutes at room temperature. […] After another wash, PE-conjugated goat anti-human IgG secondary antibody (Jackson ImmunoResearch) was added at 1:100. After incubating at 4° C. for 45 minutes and washing in PBS+2% FBS, cells were resuspended in PBS+2% FBS and analyzed by flow cytometry. Flow cytometric analysis was performed on the Attune NxT Flow Cytometer (ThermoFisher) using the Attune NxT Software. Data was analyzed using FlowJo.

Assay [2] has as its target T2, HLA-A*01:01 with … (ERGIC3) from cells (human).
T2 construct: whole, on cells
Briefly: IP-MS, K562-A*01:01 lysate (ND: Not detected; W6/32 recovers the peptide).
Description: (§2) 2×10⁸ cells expressing A*01:01/CT83 (NCI-H1703, A375±CT83) were re-suspended in 5 ml lysis buffer (1% CHAPS, 150 mM sodium chloride, 20 mM Tris pH 8) in the presence of phosphatase, and protease inhibitors. The cells were homogenized by sonication, rotated at 4° C. for 1 hr, and spun at 21,000×g for 30 min. to pellet cell debris.
(§3) After immunoprecipitation, the IP beads were isolated using filter plates, then washed to remove non-specific binding using Tris pH 8 buffers with increasing levels of NaCl. The HLA/peptide complex was eluted from the beads using 2N acetic acid. The protein components were removed from the peptides using C18 fractionation. The resultant peptides were taken to dryness by SpeedVac evaporation and stored at −20° C. prior to MS analysis.

The target of assay [3] is T1, HLA-PEPTIDE target A*01:01_… (G2) on …. Briefly: cell-based or functional assay.
Assay [4] concerns the target T3, G5 pHLA (HLA-B*35:01 with …) on cells (human).
T3 construct: whole, on cells
Briefly: flow cytometry, peptide-pulsed cells.
Description: as §1

In assay [5] the target is T4, off-target HLA-A*01:01_… (PTS) on cells (human).
T4 construct: whole, on cells; also called validated OTLA; Control peptide-3
The assay can be described thus: IP-MS, NCI-H1703 lysate, Rep2.
Description: as §2, §3

Assay [6] deals with T2, HLA-A*01:01 with … (ERGIC3) from cells. The assay can be described thus: IP-MS, NCI-H1703 lysate, Rep2.
Description: as §2, §3
Assay [7] addresses T5, off-target HLA-A*01:01_… (ICE1) on cells (human).
T5 construct: whole, on cells; also called … (IC1); validated OTLA
Briefly: IP-MS, NCI-H1703 lysate, Rep2.
Description: as §2, §3

Assay [8] concerns the target T1, HLA-PEPTIDE target A*01:01_… (G2) on …. The assay can be described thus: IP-MS, NCI-H1703 lysate, Rep2.
Description: as §2, §3
Assay [9] concerns the target T4, off-target HLA-A*01:01_… (PTS) on cells. Briefly: IP-MS, NCI-H1703 lysate, Rep1.
Description: as §2, §3
The target in assay [10] is T2, HLA-A*01:01 with … (ERGIC3) from cells. Briefly: IP-MS, NCI-H1703 lysate, Rep1.
Description: as §2, §3
For assay [11], the target named is T5, off-target HLA-A*01:01_… (ICE1) on cells. The assay can be described thus: IP-MS, NCI-H1703 lysate, Rep1.
Description: as §2, §3
For assay [12], the target named is T1, HLA-PEPTIDE target A*01:01_… (G2) on …. The assay can be described thus: IP-MS, NCI-H1703 lysate, Rep1.
Description: as §2, §3
For assay [13] the target is unchanged. Briefly: flow cytometry, anti IgG PE, A375 9mer cells (1e6 copies per cell).
Description: (§4) A375 transduced with luciferase alone served as the negative control. […] Binding was determined by flow cytometery using an anti IgG-PE antibody for detection.
Assay [14] concerns the target T6, A*01:01 with … (V or E 5) on pulsed K562-HLA cells (human).
T6 construct: whole, on cells
The assay can be described thus: flow cytometry, K562-HLA cells pulsed with peptide.

Assay [15] addresses T7, A*01:01 with … (V or E 3) on pulsed K562-HLA cells (human).
T7 construct: whole, on cells
The assay can be described thus: flow cytometry, K562-HLA cells pulsed with peptide.

The target of assay [16] is T8, A*01:01 with … (V or E 1) on pulsed K562-HLA cells (human).
T8 construct: whole, on cells
Briefly: flow cytometry, K562-HLA cells pulsed with peptide.

For assay [17], the target named is T9, A*01:01 with … (V or E 6) on pulsed K562-HLA cells (human).
T9 construct: whole, on cells
Briefly: flow cytometry, K562-HLA cells pulsed with peptide.

Assay [18] concerns the target T10, A*01:01 with … (V or E 2) on pulsed K562-HLA cells (human).
T10 construct: whole, on cells
Briefly: flow cytometry, K562-HLA cells pulsed with peptide.

Assay [19] has as its target T1, HLA-PEPTIDE target A*01:01_… (G2) on …. Briefly: flow cytometry, K562-HLA cells pulsed with peptide.
Assay [20] addresses T11, A*01:01 with … (V or E 4) on pulsed K562-HLA cells (human).
T11 construct: whole, on cells
Briefly: flow cytometry, K562-HLA cells pulsed with peptide.

The target of assay [21] is T12, off-target HLA-A*01:01_… (KDM7A) on cells (human).
T12 construct: whole, on cells; also called validated OTLA; Control peptide-4
Briefly: flow cytometry, anti-IgG PE, K562-A01:01 cells pulsed with peptide (20,000 to 40,000 copies/cell).
Description: as §1

Assay [22] has as its target T1, HLA-PEPTIDE target A*01:01_… (G2) on …. Described as above.
Description: as §1
In assay [23] the target is T13, CD3 on CD3+ Jurkat cells (human, UniProt P07766 23-207).
T13 construct: whole, on cells
Briefly: flow cytometry, anti IgG PE, CD3+ Jurkat cells.
Description: Increasing concentrations of the antibodies were incubated with CD3(+) and CD9(−) Jurkat cells. Binding was determined by flow cytometery using an anti IgG-PE antibody for detection.

In assay [24] the target is T1, HLA-PEPTIDE target A*01:01_… (G2) on …. The assay can be described thus: flow cytometry, anti IgG PE, A375 9mer cells (1e6 copies of G2 pHLA per cell).
For assay [25], the target named is T14, refolded A*01:01/b2m complex with the ROBO1 peptide … (human, UniProt P61769 21-119).
T14 construct: also called ROBO1 pHLA complex
Briefly: BLI (Octet), refolded pHLA. A general note: In BLI a coated tip is dipped into the sample, and binding shifts an interference pattern.

Assay [26] addresses T13, CD3 on CD3+ Jurkat cells. Briefly: flow cytometry, anti IgG PE, CD3+ Jurkat cells. This is another data set of the same source.
Assay [27] concerns the target T14, refolded A*01:01/b2m complex with the …. Briefly: Octet biolayer interferometry, 120 s association and 120 s dissociation.
Assay [28] concerns the target T15, biotinylated refolded G2-pHLA (A*01:01/b2m/…) (human, biotinylated at the C-terminal AviTag).
T15 construct: Soluble complex caught on streptavidin sensors or MSD plates; also called G2-peptide A*01:01/b2m complex; WT
The assay is described as above.

Assay [29] deals with T1, HLA-PEPTIDE target A*01:01_… (G2) on …. Briefly: flow cytometry, anti IgG PE, A375 9mer cells (1e6 copies per cell). This is another data set of the same source.
Description: as §4

Like-named read-outs stand apart in the source and are kept apart here.

T13 sequence (P07766 23-207): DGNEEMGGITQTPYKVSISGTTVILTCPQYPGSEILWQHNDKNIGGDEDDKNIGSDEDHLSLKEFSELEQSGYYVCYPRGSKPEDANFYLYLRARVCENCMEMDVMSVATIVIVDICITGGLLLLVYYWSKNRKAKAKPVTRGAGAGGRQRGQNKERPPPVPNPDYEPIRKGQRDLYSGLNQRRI

B1: 41-E07 hOKT3a diabody (Format 41 31E07-CD3 bispecific antibody) (bispecific antibody, human IgG1, kappa)
chain: QVQLVQSGAEVKKPGASVKVSCKASGFTFTNYLIHWVRQAPGQGLEWMGWINPNSGGTNYAQRLQGRVTMTRDTSTSTVYMELSSLRSEDTAVYYCARDYGAGNDYWGQGTLVTVSSGGGGSGGGGSDIQMTQSPSSLSASVGDRVTITCRASQEIRRWLAWYQQKPGKAPKLLIYAASNLQSGVPSRFSGSGSGTDFTLTISSLQPEDFATYYCQQSYSTPYTFGQGTKLEIKGGGGSEPKSSDKTHTCPPCPAPEFEGGPSVFLFPPKPKDTLMISRTPEVTCVVVDVSHEDPEVKFNWYVDGVEVHNAKTKPREEQYNSTYRVVSVLTVLHQDWLNGKEYKCKVSNKALPASIEKTISKAKGQPREPQVYTLPPCREEMTKNQVSLWCLVKGFYPSDIAVEWESNGQPENNYKTTPPVLDSDGSFFLYSKLTVDKSRWQQGNVFSCSVMHEALHNHYTQKSLSLSPGK
heavy: QVQLVQSGAEVKKPGASVKVSCKASGFTFTNYLIHWVRQAPGQGLEWMGWINPNSGGTNYAQRLQGRVTMTRDTSTSTVYMELSSLRSEDTAVYYCARDYGAGNDYWGQGTLVTVSSGGGGSGGGGSDIQMTQSPSSLSASVGDRVTITCRASQEIRRWLAWYQQKPGKAPKLLIYAASNLQSGVPSRFSGSGSGTDFTLTISSLQPEDFATYYCQQSYSTPYTFGQGTKLEIKGGGGSGGGGSQVQLVQSGAEVKKPGASVKVSCKASGYTFTRYTMHWVRQAPGQGLEWMGYINPSRGYTNYNQKFKDRVTLTTDKSSSTAYMELSSLRSEDTAVYYCARYYDDHYSLDYWGQGTLVTVSSASTKGPSVFPLAPSSKSTSGGTAALGCLVKDYFPEPVTVSWNSGALTSGVHTFPAVLQSSGLYSLSSVVTVPSSSLGTQTYICNVNHKPSNTKVDKRVEPKSCDKTHTCPPCPAPEFEGGPSVFLFPPKPKDTLMISRTPEVTCVVVDVSHEDPEVKFNWYVDGVEVHNAKTKPREEQYNSTYRVVSVLTVLHQDWLNGKEYKCKVSNKALPASIEKTISKAKGQPREPQVCTLPPSREEMTKNQVSLSCAVKGFYPSDIAVEWESNGQPENNYKTTPPVLDSDGSFFLVSKLTVDKSRWQQGNVFSCSVMHEALHNRFTQKSLSLSPGK
light: DIQMTQSPSSLSASVGDRVTITCSASSSVSYMNWYQQKPGKAPKRLIYDTSKLASGVPSRFSGSGSGTDFTLTISSLQPEDFATYYCQQWSSNPFTFGQGTKLEIKRTVAAPSVFIFPPSDEQLKSGTASVVCLLNNFYPREAKVQWKVDNALQSGNSQESVTEQDSKDSTYSLSSTLTLSKADYEKHKVYACEVTHQGLSSPVTKSFNRGEC
notes: also called E07-CD3 diabody; 41-31E07-hOKT3a
Consider B1, for which the EC50 (read off the curve) (in general, the concentration needed to bring the measured effect to its halfway point) in [1] was roughly 0.06 µg/mL; in [13] it was roughly 2 nM; in assay [22] it was roughly 0.3 µg/mL; in assay [23], roughly 20 nM; in assay [24], roughly 3 nM. Also, the binding result was “no binding” in [2] and “no binding (tested: 100 ug/ml)” in assay [21]. In addition, in [3], the “EC50 (ug/ml), luciferase-cytotoxicity assay with human T cells, A375-CT83 cells” value came to 0.00017 µg/mL. Also, the “EC50 (ug/ml), luciferase-cytotoxicity assay with human T cells, NCI-H820 cells” value in assay [3] was found to be 0.077 µg/mL. Moreover, the “EC50 (ug/ml), luciferase-cytotoxicity assay with human T cells, NCI-H1703 cells” value in assay [3] was determined as 0.0025 µg/mL. Further, the “log difference in EC50 against the G2 peptide [..]” value in [4] was found to be 3 log. The “copies per cell of the peptide recovered by immunoprecipitation” value worked out at 42 copies per cell in assay [5]; 37 copies per cell in [6]; 32 copies per cell in assay [7]; 2960 copies per cell in [8]; 40 copies per cell in assay [9]; 34 copies per cell in [10]. Also, the “copies per cell of the peptide recovered by immunoprecipitation” value in assay [11] came to 33 copies per cell; in [12], 2960 copies per cell. Also, the “Max Binding” value in assay [14] worked out at 2630; in [15] it was 5680; in [16], 1880; in assay [17] it was 1400; in assay [18] it was 4680; in assay [19] it was 5560. The “Max Binding” value in assay [20] was 1560.

B2: 41-E07 UCHT1v9 (Format 41 31E07-CD3 bispecific antibody) (bispecific antibody, human IgG1, kappa)
chain: QVQLVQSGAEVKKPGASVKVSCKASGFTFTNYLIHWVRQAPGQGLEWMGWINPNSGGTNYAQRLQGRVTMTRDTSTSTVYMELSSLRSEDTAVYYCARDYGAGNDYWGQGTLVTVSSGGGGSGGGGSDIQMTQSPSSLSASVGDRVTITCRASQEIRRWLAWYQQKPGKAPKLLIYAASNLQSGVPSRFSGSGSGTDFTLTISSLQPEDFATYYCQQSYSTPYTFGQGTKLEIKGGGGSEPKSSDKTHTCPPCPAPEFEGGPSVFLFPPKPKDTLMISRTPEVTCVVVDVSHEDPEVKFNWYVDGVEVHNAKTKPREEQYNSTYRVVSVLTVLHQDWLNGKEYKCKVSNKALPASIEKTISKAKGQPREPQVYTLPPCREEMTKNQVSLWCLVKGFYPSDIAVEWESNGQPENNYKTTPPVLDSDGSFFLYSKLTVDKSRWQQGNVFSCSVMHEALHNHYTQKSLSLSPGK
heavy: QVQLVQSGAEVKKPGASVKVSCKASGFTFTNYLIHWVRQAPGQGLEWMGWINPNSGGTNYAQRLQGRVTMTRDTSTSTVYMELSSLRSEDTAVYYCARDYGAGNDYWGQGTLVTVSSGGGGSGGGGSDIQMTQSPSSLSASVGDRVTITCRASQEIRRWLAWYQQKPGKAPKLLIYAASNLQSGVPSRFSGSGSGTDFTLTISSLQPEDFATYYCQQSYSTPYTFGQGTKLEIKGGGGSGGGGSEVQLVESGGGLVQPGGSLRLSCAASGYSFTGYTMNWVRQAPGKGLEWVALINPYKGVSTYNQKFKDRFTISVDKSKNTAYLQMNSLRAEDTAVYYCARSGYYGDSDWYFDVWGQGTLVTVSSASTKGPSVFPLAPSSKSTSGGTAALGCLVKDYFPEPVTVSWNSGALTSGVHTFPAVLQSSGLYSLSSVVTVPSSSLGTQTYICNVNHKPSNTKVDKRVEPKSCDKTHTCPPCPAPEFEGGPSVFLFPPKPKDTLMISRTPEVTCVVVDVSHEDPEVKFNWYVDGVEVHNAKTKPREEQYNSTYRVVSVLTVLHQDWLNGKEYKCKVSNKALPASIEKTISKAKGQPREPQVCTLPPSREEMTKNQVSLSCAVKGFYPSDIAVEWESNGQPENNYKTTPPVLDSDGSFFLVSKLTVDKSRWQQGNVFSCSVMHEALHNRFTQKSLSLSPGK
light: not shown
notes: also called 41-31E07-UCHT1v9; 41-E07 hUCHT1v9
B2: the “times less binding affinity than to the G2-peptide A*01:01/b2m complex” value in assay [25] came to 5000 fold. Also, the “EC50 (read off the curve)” value in assay [13] was roughly 2 nM; in assay [26], roughly 2 nM; in assay [29], roughly 2 nM; in [23] it was roughly 3 nM. Further, the Kd (usually a measure of binding affinity in units of concentration) in assay [27] is 5.52 nM; in [28], less than 0.001 nM. Also, the koff (commonly the first-order rate constant of dissociation) in assay [27] was 0.00557 s⁻¹; in assay [28], less than 1e-07 s⁻¹. Also, the kon (usually the rate constant with which the complex forms) in assay [27] came out at 1.01e+06 M⁻¹ s⁻¹; in assay [28], 566000 M⁻¹ s⁻¹.
